Columns and labels:
Test in all cases: Flag immunoprecipitation of DUBs from 293T cells cotransfected with ID2, MG-132 treated (FIG. 2B)
[1] = target: T1, SENP5-Flag (human SENP5 with C-terminal Flag epitope) (human, UniProt Q96HI0 1-755, limits assumed)
T1 sequence (looked up): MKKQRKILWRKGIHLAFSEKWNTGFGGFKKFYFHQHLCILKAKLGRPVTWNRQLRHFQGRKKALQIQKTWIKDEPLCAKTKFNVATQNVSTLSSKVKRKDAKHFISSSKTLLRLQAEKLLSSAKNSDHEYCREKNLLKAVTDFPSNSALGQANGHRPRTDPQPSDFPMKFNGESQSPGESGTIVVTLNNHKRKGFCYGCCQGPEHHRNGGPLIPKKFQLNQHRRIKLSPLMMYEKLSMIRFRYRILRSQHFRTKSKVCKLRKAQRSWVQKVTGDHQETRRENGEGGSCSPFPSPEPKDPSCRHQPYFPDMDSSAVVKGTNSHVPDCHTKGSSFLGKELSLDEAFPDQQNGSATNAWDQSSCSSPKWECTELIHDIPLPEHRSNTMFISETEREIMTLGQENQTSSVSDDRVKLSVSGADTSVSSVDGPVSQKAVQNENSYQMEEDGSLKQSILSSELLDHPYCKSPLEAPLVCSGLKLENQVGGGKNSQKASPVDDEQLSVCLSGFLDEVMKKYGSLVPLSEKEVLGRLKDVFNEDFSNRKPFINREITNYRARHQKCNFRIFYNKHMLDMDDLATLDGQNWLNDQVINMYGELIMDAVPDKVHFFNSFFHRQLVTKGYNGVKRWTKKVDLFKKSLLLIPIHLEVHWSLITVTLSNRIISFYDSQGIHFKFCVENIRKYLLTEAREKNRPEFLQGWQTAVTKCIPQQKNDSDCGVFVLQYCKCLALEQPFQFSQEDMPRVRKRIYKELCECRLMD
Description: (§1) FIG. 2. […] (A) Western blot (WB) analysis of 293T transfected with Flag-tagged deubiquitinases (DUBs) or an empty vector (−). Where indicated, cells were treated with […] MG-132 for 4 hr. (B) Flag-tagged DUBs were immunoprecipitated (IP) from 293T cells cotransfected with ID2 and treated with […] MG-132 for 6 hr.

[2] = target: T2, OTUD5-Flag (human OTUD5 with C-terminal Flag epitope) (human, UniProt Q96G74 1-571, limits assumed)
T2 sequence (looked up): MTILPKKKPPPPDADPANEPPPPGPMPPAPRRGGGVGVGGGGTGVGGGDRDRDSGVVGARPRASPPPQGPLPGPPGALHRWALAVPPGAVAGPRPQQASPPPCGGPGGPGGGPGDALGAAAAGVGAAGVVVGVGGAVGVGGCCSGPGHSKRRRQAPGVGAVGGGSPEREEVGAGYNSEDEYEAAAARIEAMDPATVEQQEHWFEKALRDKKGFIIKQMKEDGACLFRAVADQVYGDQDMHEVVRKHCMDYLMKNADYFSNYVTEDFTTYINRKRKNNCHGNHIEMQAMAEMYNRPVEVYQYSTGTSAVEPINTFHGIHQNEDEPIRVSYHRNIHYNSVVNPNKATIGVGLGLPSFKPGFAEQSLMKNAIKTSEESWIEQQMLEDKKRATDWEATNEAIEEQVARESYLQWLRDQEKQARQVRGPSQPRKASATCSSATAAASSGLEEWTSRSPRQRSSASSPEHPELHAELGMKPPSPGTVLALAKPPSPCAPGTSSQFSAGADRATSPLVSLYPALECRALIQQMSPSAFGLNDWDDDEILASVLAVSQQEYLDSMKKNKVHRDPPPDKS
Description: as §1

[3] = target: T3, USP45-Flag (human USP45 with C-terminal Flag epitope) (human, UniProt Q70EL2 1-814, limits assumed)
T3 sequence (looked up): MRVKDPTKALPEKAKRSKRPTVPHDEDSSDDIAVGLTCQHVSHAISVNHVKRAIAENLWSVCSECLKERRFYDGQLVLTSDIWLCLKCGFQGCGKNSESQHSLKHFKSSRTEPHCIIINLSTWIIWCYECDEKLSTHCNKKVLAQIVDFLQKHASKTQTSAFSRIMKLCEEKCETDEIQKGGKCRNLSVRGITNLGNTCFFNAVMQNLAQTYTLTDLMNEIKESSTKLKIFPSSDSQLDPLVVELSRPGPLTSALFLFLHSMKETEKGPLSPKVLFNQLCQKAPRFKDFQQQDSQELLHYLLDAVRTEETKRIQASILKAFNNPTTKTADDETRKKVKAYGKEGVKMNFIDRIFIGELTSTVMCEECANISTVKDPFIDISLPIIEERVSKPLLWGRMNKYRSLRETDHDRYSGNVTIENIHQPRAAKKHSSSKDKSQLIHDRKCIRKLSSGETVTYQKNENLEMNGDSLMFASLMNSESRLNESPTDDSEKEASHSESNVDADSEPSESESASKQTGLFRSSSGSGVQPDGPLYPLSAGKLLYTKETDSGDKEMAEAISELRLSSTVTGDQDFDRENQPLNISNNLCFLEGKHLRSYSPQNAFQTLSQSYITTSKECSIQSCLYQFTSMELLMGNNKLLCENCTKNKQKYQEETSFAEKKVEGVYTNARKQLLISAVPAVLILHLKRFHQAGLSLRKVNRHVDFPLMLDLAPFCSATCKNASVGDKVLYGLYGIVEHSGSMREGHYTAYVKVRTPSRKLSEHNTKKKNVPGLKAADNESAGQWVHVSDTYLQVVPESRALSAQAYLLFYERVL
Description: as §1

binding result [1]: no binding
binding result [2]: no binding
binding result [3]: no binding
B1: ID2 (co-transfected / co-expressed in 293T cells) (other)
chain: MKAFSPVRSVRKNSLSDHSLGISRSKTPVDDPMSLLYNMNDCYSKLKELVPSIPQNKKVSKMEILQHVIDYILDLQIALDSHPTIVSLHHQRPGQNQASRTPLTTLNTDISILSLQASEFPSELMSNDSKALCG
notes: ID2 was amplified from Jurkat-derived cDNA; The methods describe only a C-terminal Flag version in pRK2001
